Laboratory results published in patent US20190382488A1 (IMAGINAB, published 2019).

B1: IAb_Mb2b_CD8 (other)
chain: EVQLVESGGGLVQPGGSLRLSCAASGFNIKDTYIHFVRQAPGKGLEWIGRIDPANDNTLYASKFQGKATISADTSKNTAYLQMNSLRAEDTAVYYCGRGYGYYVFDHWGQGTLVTVSSGSTSGGGSGGGSGGGGSSDVQITQSPSSLSASVGDRVTITCRTSRSISQYLAWYQQKPGKVPKLLIYSGSTLQSGVPSRFSGSGSGTDFTLTISSLQPEDVATYYCQQHNENPLTFGGGTKVEIKEPKSCDKTHTCPPCGGGSSGGGSGGQPREPQVYTLPPSRDELTKNQVSLTCLVKGFYPSDIAVEWESNGQPENNYKTTPPVLDSDGSFFLYSKLTVDKSRWQQGNVFSCSVMHEALHNHYTQKSLSLSPGK
notes: also called IAb M2b CD8
B2: OKT8 mAb (antibody, V domains shown)
VH: EVQLQQSGAELVKPGASVKLSCTASGFNIKDTYIHFVRQRPEQGLEWIGRIDPANDNTLYASKFQGKATITADTSSNTAYMHLCSLTSGDTAVYYCGRGYGYYVFDHWGQGTTLTVSS
VL: DVQINQSPSFLAASPGETITINCRTSRSISQYLAWYQEKPGKTNKLLIYSGSTLQSGIPSRFSGSGSGTDFTLTISGLEPEDFAMYYCQQHNENPLTFGAGTKLELK
notes: Parental murine monoclonal antibody (detected with anti-mouse IgG Fc); also called parental OKT8 antibody; parental OKT8
B3: IAb_Mb1c_CD8 (other)
chain: DVQITQSPSSLSASVGDRVTITCRTSRSISQYLAWYQQKPGKVPKLLIYSGSTLQSGVPSRFSGSGSGTDFTLTISSLQPEDVATYYCQQHNENPLTFGGGTKVEIKGSTSGGGSGGGSGGGGSSQVQLVQSGAEVKKPGATVKISCKVSGFNIKDTYIHFVQQAPGKGLEWIGRIDPANDNTLYASKFQGKATITADTSTDTAYMELSSLRSGDTAVYYCGRGYGYYVFDHWGQGTLVTVSSEPKSCDKTHTCPPCGGGSSGGGSGGQPREPQVYTLPPSRDELTKNQVSLTCLVKGFYPSDIAVEWESNGQPENNYKTTPPVLDSDGSFFLYSKLTVDKSRWQQGNVFSCSVMHEALHNHYTQKSLSLSPGK
notes: also called variant 1c
B4: IAb_Mb1b_CD8 (other)
chain: DVQITQSPSSLSASVGDRVTITCRTSRSISQYLAWYQQKPGKVPKLLIYSGSTLQSGVPSRFSGSGSGTDFTLTISSLQPEDVATYYCQQHNENPLTFGGGTKVEIKGSTSGGGSGGGSGGGGSSEVQLVESGGGLVQPGGSLRLSCAASGFNIKDTYIHFVRQAPGKGLEWIGRIDPANDNTLYASKFQGKATISADTSKNTAYLQMNSLRAEDTAVYYCGRGYGYYVFDHWGQGTLVTVSSEPKSCDKTHTCPPCGGGSSGGGSGGQPREPQVYTLPPSRDELTKNQVSLTCLVKGFYPSDIAVEWESNGQPENNYKTTPPVLDSDGSFFLYSKLTVDKSRWQQGNVFSCSVMHEALHNHYTQKSLSLSPGK
notes: also called IAb M1b CD8
B5: IAb_M1b_CD8-Df (other)
chain: DVQITQSPSSLSASVGDRVTITCRTSRSISQYLAWYQQKPGKVPKLLIYSGSTLQSGVPSRFSGSGSGTDFTLTISSLQPEDVATYYCQQHNENPLTFGGGTKVEIKGSTSGGGSGGGSGGGGSSEVQLVESGGGLVQPGGSLRLSCAASGFNIKDTYIHFVRQAPGKGLEWIGRIDPANDNTLYASKFQGKATISADTSKNTAYLQMNSLRAEDTAVYYCGRGYGYYVFDHWGQGTLVTVSSEPKSCDKTHTCPPCGGGSSGGGSGGQPREPQVYTLPPSRDELTKNQVSLTCLVKGFYPSDIAVEWESNGQPENNYKTTPPVLDSDGSFFLYSKLTVDKSRWQQGNVFSCSVMHEALHNHYTQKSLSLSPGK
modifications: Desferoxamine (Df) conjugated to lysine residues
notes: also called Df-labeled minibody

Legend:
[1] = molecular target: T1, cell-surface human CD8 (human, UniProt P01732 22-235); assay: flow cytometry, HPB-ALL cells
T1 construct: the cell is named under assay; also called cellular human CD8; CD8 on PC3-CD8 cells
T1 sequence (P01732 22-235 limits assumed): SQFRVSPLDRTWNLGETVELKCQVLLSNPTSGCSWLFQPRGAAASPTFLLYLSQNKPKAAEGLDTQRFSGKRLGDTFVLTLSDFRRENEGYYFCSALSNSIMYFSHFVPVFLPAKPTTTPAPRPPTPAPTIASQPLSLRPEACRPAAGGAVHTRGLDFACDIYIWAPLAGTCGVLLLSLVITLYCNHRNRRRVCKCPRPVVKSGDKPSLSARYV
Experimental: (§1) Flow cytometry analysis of minibodies binding to cell-surface human CD8 on HPB-ALL cells was performed. Cells were stained with respective concentrations of minibody, washed, and then stained with a secondary anti-human IgG (Fc-specific) APC-conjugated antibody. Analysis was performed with 10,000 events/point in triplicate for each concentration. The results are shown in graph format in FIG. 29A. The graph presents the normalized mean fluorescence intensity (MFI) vs. the log of the concentration (nM). Error bars represent the standard error. The data indicates an EC₅₀ of 0.15 nM and 0.19 nM.
as §1, with “analysis of IgG2 minibodies binding” for “analysis of minibodies binding”, “in FIG. 29E. The graph” for “in FIG. 29A. The graph”, “EC₅₀ of 0.1 nM, 0.13 nM, and 0.08” for “EC₅₀ of 0.15 nM and 0.19”, “nM, and 0.08 nM.” for “nM and 0.19 nM.”

[2] = molecular target: T2, recombinant human CD8 (rhCD8) (human, UniProt P01732 22-182); assay: SPR (summary table); Table 9 summary
T2 construct: Soluble purified recombinant protein; also called purified recombinant human CD8 protein; soluble CD8
T2 sequence (P01732 22-182 limits assumed): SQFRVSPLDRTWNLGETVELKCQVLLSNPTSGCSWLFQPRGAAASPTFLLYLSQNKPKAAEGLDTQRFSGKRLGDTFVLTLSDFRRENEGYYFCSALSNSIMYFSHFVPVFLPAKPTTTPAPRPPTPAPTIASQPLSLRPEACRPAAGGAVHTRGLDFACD

[3] = molecular target: T1, cell-surface human CD8; assay: flow cytometry, primary human CD8+ T cells
Experimental: as §1, with “primary human CD8+ T” for “HPB-ALL”, “29B.” for “29A.”, “0.1” for “0.15”, “0.26” for “0.19”

[4] = molecular target: T1, cell-surface human CD8; assay: flow cytometry on primary human CD8+ T cells, anti-human IgG (Fc-specific)-APC
Experimental: as §1, with “primary human CD8+ T” for “HPB-ALL”, “29B.” for “29A.”, “0.1” for “0.15”, “0.26” for “0.19”

[5] = molecular target: T2, recombinant human CD8 (rhCD8); assay: SPR (BIAcore), minibody captured via anti-human IgG Fc, hCD8 analyte at 50 nM
Description: (§2) Surface plasma resonance (SPR) was used to determine the binding affinity for all the IAb_Mb_CD8 variants to recombinant human CD8 (Table 8.0). The minibody protein in the supernatant was captured on to the BIAcore chip using an anti-human IgG (Fc-specific) antibody. The amount of minibody captured on the chip was normalized to enable a direct comparison of binding affinity between the variants as a kinetic “scouting” experiment to rank affinities. The rhCD8 protein was passed over the captured minibody protein to measure binding.
(§3) Table 8.0 summarizes the measured association (ka), dissociation (kd), and kD constants for the IAb_Mb_CD8 variants binding to recombinant hCD8. The variants were captured on a BIAcore chip using anti-human Fc-specific IgG antibody.

[6] = molecular target: T1, cell-surface human CD8; assay: flow cytometry on HPB-ALL cells, anti-human IgG (Fc-specific)-APC
Experimental: as §1

[7] = molecular target: T1, cell-surface human CD8; assay: flow cytometry, HPB-ALL cells; remark: listed apart in the source
Experimental: as §1, with “the OKT8 mAbconstruct” for “minibodies”, “antibody,” for “minibody,”, “anti-mouse” for “anti-human”, “28.” for “29A.”, “the” for “the normalized”, “0.22” for “0.15 nM and 0.19”

[8] = molecular target: T2, recombinant human CD8 (rhCD8); assay: SPR (BIAcore), antibody as captured ligand, hCD8 analyte at 50 nM
[9] = molecular target: T1, cell-surface human CD8; assay: flow cytometry, HPB-ALL cells; Table 9 summary, HPB-ALL cells
Experimental: as §1, with “the OKT8 mAbconstruct” for “minibodies”, “antibody,” for “minibody,”, “anti-mouse” for “anti-human”, “28.” for “29A.”, “the” for “the normalized”, “0.22” for “0.15 nM and 0.19”

[10] = molecular target: T1, cell-surface human CD8; assay: flow cytometry on HPB-ALL cells, anti-mouse IgG (Fc-specific)-APC
Experimental: as §1, with “the OKT8 mAbconstruct” for “minibodies”, “antibody,” for “minibody,”, “anti-mouse” for “anti-human”, “28.” for “29A.”, “the” for “the normalized”, “0.22” for “0.15 nM and 0.19”

[11] = molecular target: T2, recombinant human CD8 (rhCD8); assay: SPR (summary table)
Description: as §2, §3

[12] = molecular target: T2, recombinant human CD8 (rhCD8); assay: ELISA on plate-coated rhCD8, transfection supernatant, HRP goat anti-human IgG (Fc-specific), TMB, absorbance 405 nm
Experimental: 96 well plates were coated with rhCD8 antigen and incubated with supernatants obtained from the transient transfection. Binding was detected with HRP-conjugated goat anti-human (Fc-specific) IgG and TMB substrate. The absorbance measured at 405 nm. Dilutions were done in triplicate. Data is shown as mean of relative absorbance.

[13] = molecular target: T1, cell-surface human CD8; assay: flow cytometry on HPB-ALL cells, anti-human IgG (Fc-specific)-APC; remark: listed apart in the source
[14] = molecular target: T1, cell-surface human CD8; assay: flow cytometry, PC3 cells overexpressing CD8
[15] = molecular target: T1, cell-surface human CD8; assay: flow cytometry on PC3 cells overexpressing CD8, anti-human IgG (Fc-specific)-APC
Experimental: Flow cytometry analysis of minibody (+/−lysine conjugation to Desferoxamine) binding to PC3 cells overexpressing CD8 was performed. Cells were stained with respective concentrations of minibody, washed, and then stained with a secondary anti-human IgG (Fc-specific) APC-conjugated antibody. Analysis was performed with 10,000 events/point in triplicate for each concentration. The results are shown in graph format in FIG. 29D. The graph presents the mean fluorescence intensity (MFI) vs. the log of the concentration (nM). Error bars represent the standard error. The data indicates an EC₅₀ of 0.64 nM and 0.83 nM.

[16] = molecular target: T1, cell-surface human CD8; assay: flow cytometry on HPB-ALL cells, anti-human IgG (Fc-specific)-APC; remark: listed apart in the source
Experimental: as §1, with “analysis of IgG2 minibodies binding” for “analysis of minibodies binding”, “in FIG. 29E. The graph” for “in FIG. 29A. The graph”, “EC₅₀ of 0.1 nM, 0.13 nM, and 0.08” for “EC₅₀ of 0.15 nM and 0.19”, “nM, and 0.08 nM.” for “nM and 0.19 nM.”

| Binder | EC50 [1] [nM] | EC50 [3] [nM] | EC50 [4] [nM] | EC50 (read off the curve) [4] [nM] | Ka [5] [M⁻¹] | Kd [5] [nM] | koff [5] [s⁻¹] | kon [5] [M⁻¹ s⁻¹] | EC50 [6] [nM] | Kd [11] [nM] | EC50 [13] [nM] | EC50 [15] [nM] | EC50 (read off the curve) [15] [nM] | also measured |
| --- | --- | --- | --- | --- | --- | --- | --- | --- | --- | --- | --- | --- | --- | --- |
| B1 | 0.19 | 0.26 | 0.26 | ~0.3 | 2.6e+08 | 3.9 | 0.0021 | 540000 | 0.19 | – | – | – | – | Kd [2]: 3.6 nM |
| B2 | – | – | – | – | – | – | – | – | – | 1.8 | – | – | – | EC50 [7]: 0.22 nM; Ka [8]: 5.5e+08 M⁻¹; Kd [8]: 1.8 nM; koff [8]: 0.001 s⁻¹; kon [8]: 560000 M⁻¹ s⁻¹; EC50 [9]: 0.33 nM; EC50 [10]: 0.33 nM; EC50 (read off the curve) [10]: ~0.3 nM |
| B3 | – | – | – | – | 4e+08 | 2.5 | 0.0018 | 700000 | – | – | – | – | – | EC50 (read off the curve) [12]: ~0.02 µg/mL |
| B4 | 0.1 | 0.1 | 0.1 | ~0.1 | 5.4e+08 | 1.9 | 0.0012 | 640000 | 0.15 | 1.9 | 0.13 | 0.64 | ~0.7 | EC50 [14]: 0.6 nM; EC50 [16]: 0.1 nM |
| B5 | – | – | – | – | – | – | – | – | – | – | 0.12 | 0.83 | ~0.9 | – |
